Results published in US20100233678.

Tests used:
[1] = system: IgG, polyclonal (Mus musculus); assay: FP; details: 10 nM DNA, 1 uM IgG, PBS pH 7.0, 45 min
[2] = system: IgG, polyclonal (ChromPure) (Homo sapiens); assay: filter; details: ultrafiltration, 41 mM Na+, pH 6
[3] = system: IgG2, monoclonal (Homo sapiens); assay: filter; details: 37.5 mM NaCl, 3.75 mM sodium citrate, pH 6.0
[4] = system: IgG3, monoclonal (Homo sapiens); assay: filter; details: 37.5 mM NaCl, 3.75 mM Na citrate, pH 6.0
[5] = system: IgG Fab2 fragment (Mus musculus); assay: filter; details: 37.5 mM NaCl, 3.75 mM sodium citrate, pH 6.0
[6] = system: IgA, monoclonal (Homo sapiens); assay: filter; details: 37.5 mM NaCl, 3.75 mM sodium citrate, pH 6.0
[7] = system: IgM, monoclonal (Homo sapiens); assay: filter; details: 37.5 mM NaCl, 3.75 mM sodium citrate, pH 6.0
[8] = system: IgG Fab2 fragment (Homo sapiens); assay: filter; details: 37.5 mM NaCl, 3.75 mM sodium citrate, pH 6.0
[9] = system: IgG1, monoclonal (Homo sapiens); assay: filter; details: 37.5 mM NaCl, 3.75 mM sodium citrate, pH 6.0
[10] = system: IgG, polyclonal (Mus musculus); assay: filter; details: 37.5 mM NaCl, 3.75 mM sodium citrate, pH 6.0
[11] = system: IgG4, monoclonal (Homo sapiens); assay: filter; details: 37.5 mM NaCl, 3.75 mM Na citrate, pH 6.0
[12] = system: IgG Fc fragment (Homo sapiens); assay: filter; details: 37.5 mM NaCl, 3.75 mM sodium citrate, pH 6.0
[13] = hexaethylene glycol (iSp18) linkers as both loops

Row | Sequence | Ka (log10 Ka (M-1)) [3] | Ka [4] | Ka (log10 Ka (M-1)) [5] | Ka (log10 Ka (M-1)) [6] | Ka (log10 Ka (M-1)) [7] | Ka (log10 Ka (M-1)) [8] | Ka (log10 Ka (M-1)) [9] | Ka (log10 Ka (M-1)) [10] | Ka [11] | also measured
1 | TCCCTTTCCCTTTCCCTTTCCC [RAD28] | – | – | – | – | – | – | – | – | – | binding signal (% polarization change) [1]: 22
2 | TTTTCGCGTGTGTGCGCGAA [RAD12] | – | – | – | – | – | – | – | – | – | Ka (log10 Ka (M-1)) ([2]; pH 5 7.61, pH 7 6.37, pH 8 5.74): 6.98
3 | CCTTCCTTTGGAAGGTTG [RAD23] | 6.86 | 5.62 log10 M-1 | 6.33 | 6.38 | 6.08 | 5.64 | 6.14 | 6.77 | 5.97 log10 M-1 | Ka (log10 Ka (M-1)) ([2]; pH 5 7.37, pH 7 6.31, pH 8 6.21): 6.88
4 | CCTCTTCTTTTTCTTCTC [RAD20] | 7.85 | 6.84 log10 M-1 | 7.41 | 7.53 | 7.02 | 6.9 | 7.34 | 8.3 | 7.67 log10 M-1 | Ka (log10 Ka (M-1)) ([2]; pH 5 8.11, pH 7 7.40, pH 8 6.64): 7.98; Ka (log10 Ka (M-1)) [12]: 5.96
5 | GGTTGGTTTGGTTGG [RAD13 (TTT-aptamer)] | – | – | – | – | – | – | – | – | – | Ka (log10 Ka (M-1)) ([2]; pH 5 7.55, pH 7 6.46, pH 8 6.53): 6.96
6 | TTTGGTTGGTTTGGTTGG [RAD19] | – | – | – | – | – | – | – | – | – | Ka (log10 Ka (M-1)) ([2]; inosine at I positions [inosine at 4,14], pH 5 7.82, pH 7 6.50, pH 8 6.04): 7.14
7 | TGGTTGGTTTTTGGAAGGATTTTTTCCTTCC [RAD3] | 7.36 | 6.69 log10 M-1 | 7.09 | 7.38 | 6.71 | 6.97 | 7.45 | 7.69 | 7.2 log10 M-1 | Ka (log10 Ka (M-1)) ([2]; pH 5 8.60, pH 7 6.86, pH 8 6.76): 7.79; Ka (log10 Ka (M-1)) [12]: 6.34
8 | TGGGCCGGTAACGGATTACCGTAAGGTCCC [RAD11] | – | – | – | – | – | – | – | – | – | Ka (log10 Ka (M-1)) ([2]; pH 5 8.31, pH 7 6.85, pH 8 6.85): 7.64
9 | TTTTCGCGCGTTAACGCGCGAA [RAD16] | 6.11 | 6.31 log10 M-1 | 6.11 | 6.46 | 6.26 | 6.23 | 6.87 | 7.07 | 6.54 log10 M-1 | Ka (log10 Ka (M-1)) ([2]; pH 5 8.22, pH 7 7.25, pH 8 6.79): 7.8
10 | CCTCTTCHEGCTTCTCCHEGGGAGAAG [RAD1] | – | – | – | – | – | – | – | – | – | Ka (log10 Ka (M-1)) [3, 13]: 6.51; Ka (log10 Ka (M-1)) ([2]; hexaethylene glycol (iSp18) linkers as both loops, pH 5 7.45, pH 7 6.49, pH 8 6.30): 6.51; Ka (log10 Ka (M-1)) [5, 13]: 6.38; Ka (log10 Ka (M-1)) [6, 13]: 6.37; Ka (log10 Ka (M-1)) [7, 13]: 6.32; Ka (log10 Ka (M-1)) [8, 13]: 5.82; Ka (log10 Ka (M-1)) [9, 13]: 6.38; Ka (log10 Ka (M-1)) [12, 13]: 5.8; Ka (log10 Ka (M-1)) [10, 13]: 6.6
11 | GGAAAGGTTTTTGGAAAGGTTTTTCCTTTCC [RAD6] | – | – | – | – | – | – | – | – | – | Ka (log10 Ka (M-1)) ([2]; pH 5 8.50, pH 7 6.86, pH 8 6.74): 7.96
12 | TGGGCCGGTAACGGGTTACCGTAAGGTCCC [RAD10] | 7.01 | 6.62 log10 M-1 | 6.76 | 6.92 | 6.7 | 6.43 | 7.04 | 7.53 | 7 log10 M-1 | Ka (log10 Ka (M-1)) ([2]; pH 5 8.41, pH 7 6.81, pH 8 6.72): 7.65; Ka (log10 Ka (M-1)) [12]: 5.92
13 | CCTCTTCTTTTTCTTCTCCTTTTTGGAGAAG [RAD2] | 7.06 | 6.64 log10 M-1 | 6.71 | 6.9 | 6.73 | 6.45 | 7.04 | 7.49 | 7.08 log10 M-1 | Ka (log10 Ka (M-1)) ([2]; pH 5 8.74, pH 7 6.96, pH 8 6.57): 7.61; Ka (log10 Ka (M-1)) [12]: 5.86
14 | CGCGAAAACGCG [RAD22] | – | – | – | – | – | – | – | – | – | Ka (log10 Ka (M-1)) ([2]; pH 5 5.95, pH 7 6.04, pH 8 5.97): 6.25
15 | GAGAGAGTTTTTGAGAGAGTTTTTCTCTCTC [RAD7] | 7.25 | 6.74 log10 M-1 | 6.97 | 7.33 | 6.89 | 6.68 | 7.3 | 7.69 | 7.16 log10 M-1 | Ka (log10 Ka (M-1)) ([2]; pH 5 8.51, pH 7 6.97, pH 8 6.79): 8.04; Ka (log10 Ka (M-1)) [12]: 5.99
16 | CCTCTTCCTTCTCCGGAGAAG [RAD1] | – | – | – | – | – | – | – | – | – | Ka ([4]; two hexaethylene glycol (iSp18) linkers as loops [iSp18 (hexaethylene glycol) linkers left out between 7-8 and 14-15], ultrafiltration, Picogreen): 6.17 log10 M-1; Ka ([11]; two hexaethylene glycol (iSp18) linkers as loops [iSp18 (hexaethylene glycol) linkers left out between 7-8 and 14-15]): 6.37 log10 M-1
17 | TCCTCTTCTTTTTCTTCTC [RAD24] | – | – | – | – | – | – | – | – | – | binding signal (% polarization change) [1]: 21
18 | TTCCTTCCTTCCTTCCTTC [RAD25] | – | – | – | – | – | – | – | – | – | binding signal (% polarization change) [1]: 22
19 | AGGCCGCGCCCCCCGCGCCCACCGCCCCGGTGCC [RAD29] | – | – | – | – | – | – | – | – | – | binding signal (% polarization change) [1]: 19
20 | TCTCTCTCTCTCTCTCTCT [RAD26] | – | – | – | – | – | – | – | – | – | binding signal (% polarization change) [1]: 38
21 | TCCTTTCCTTTCCTTTCCT [RAD27] | – | – | – | – | – | – | – | – | – | binding signal (% polarization change) [1]: 22
22 | CCCTCCCTGGGCTTTTTTTGATTTTTCTTAA [RAD4] | 7.67 | – | 7.09 | 7.66 | 6.89 | 6.89 | 7.52 | 7.71 | – | Ka ([4]; control oligo): 6.66 log10 M-1; Ka (log10 Ka (M-1)) ([2]; pH 5 8.48, pH 7 7.10, pH 8 7.02): 8.13; Ka (log10 Ka (M-1)) [12]: 5.26; Ka ([11]; control oligo): 7.13 log10 M-1
23 | GAGTGAGTCTCAGTTAGTTTCGATTGATTCT [RAD5] | – | – | – | – | – | – | – | – | – | Ka (log10 Ka (M-1)) ([2]; pH 5 8.75, pH 7 7.11, pH 8 6.81): 8.03
24 | GGAGGTGCTCCGAAAGGAACTCC [RAD30] | – | – | – | – | – | – | – | – | – | binding signal (% polarization change) [1]: 15
25 | TTTTCGCGCGTACGCGCGCGAA [RAD15] | 6.18 | 6.22 log10 M-1 | 6.21 | 6.23 | 6.19 | 5.33 | 6.39 | 6.35 | 6.13 log10 M-1 | Ka (log10 Ka (M-1)) ([2]; pH 5 7.65, pH 7 6.33, pH 8 6.19): 7
26 | CTCTCTCTTTTTCTCTCTCTTTTTGAGAGAG [RAD9] | 7.05 | 6.62 log10 M-1 | 6.75 | 6.95 | 6.79 | 6.44 | 7.05 | 7.46 | 7.06 log10 M-1 | Ka (log10 Ka (M-1)) ([2]; pH 5 8.67, pH 7 7.04, pH 8 6.94): 7.74; Ka (log10 Ka (M-1)) [12]: 5.87
27 | TGGAGTCTGCGCGAGTCAGCGCTCAAGATC [RAD8] | – | – | – | – | – | – | – | – | – | Ka (log10 Ka (M-1)) ([2]; pH 5 8.41, pH 7 6.86, pH 8 6.84): 7.85
